The assay addresses RAS (endogenous RAS of human pancreatic PANC-1 cells and PANC-1 xenograft tumours, detected with a pan-RAS antibody). Put plainly: cell-based or functional assay.

Bounds are passed on as bounds.

“RRSP protein expressed in cells from rrsp mRNA delivered by PPDP2 nanoparticles (from UniProt A0A2S3R7M0 3596-4089) (enzyme)” showed a cell proliferation measured by crystal violet staining, PANC-1 cells, 1.25 µg PPDP2-rrsp above 60 % reduction and a total levels of intact RAS, western blot with pan-RAS antibody, PANC-1 cells treated with PPDP2-rrsp of 40 % reduction.

Values taken from US20260158151A1.
